{"source": "patent US11124785B2", "about": "“Rothia subtilisins, S8A family proteases, as therapeutic enzymes for application in gluten intolerance disorders” (TRUSTEES OF BOSTON UNIVERSITY, priority 2016, dated 2021)", "molecules": {"B1": {"name": "NattoK: nattokinase, a 27.7 kDa subtilisin enzyme from B. subtilis, available in pure form as a dietary supplement (protein, listed as Bacillus subtilis)", "chain": "MRSKKLWISLLFALTLIFTMAFSNMSAQAAGKSSTEKKYIVGFKQTMSAMSSAKKKDVISEKGGKVQKQFKYVNAAAATLDEKAVKELKKDPSVAYVEEDHIAHEYAQSVPYGISQIKAPALHSQGYTGSNVKVAVIDSGIDSSHPDLNVRGGASFVPSETNPYQDGSSHGTHVAGTIAALNNSIGVLGVAPSASLYAVKVLDSTGSGQYSWIINGIEWAISNNMDVINMSLGGPTGSTALKTVVDKAVSSGIVVAAAAGNEGSSGSTSTVGYPAKYPSTIAVGAVNSSNQRASFSSVGSELDVMAPGVSIQSTLPGGTYGAYNGTSMATPHVAGAAALILSKHPTWTNAQVRDRLESTATYLGNSFYYGKGLINVQAAAQ"}}, "key": {"[1]": {"tested_on": "R. mucilaginosa enzyme preparation (Rmep)", "experiment": "Inhibitor profile of Rmep (Suc-AAPF-pNA hydrolysis)", "type": "biochemical, Rothia mucilaginosa", "conditions": "for inhibition of Rmep activity: AEBSF 10 mM, aprotinin 0.08 mM, E-64 0.1 mM, EDTA 1.5 mM, PMSF 1 mM, Rmep 5.7 μg/ml, Suc-AAPF-pNA", "procedure": "Inhibitors AEBSF, Aprotinin, E-64, EDTA, PMSF and Eglin C were tested at final concentrations of 10 mM, 0.08 mM, 0.1 mM, 1.5 mM, 1 mM, and 0.06 μM, respectively. Rmep was added at a final concentration of 5.7 μg/ml. The percent inhibition was determined from the ratio of the initial velocities of hydrolysis of Suc-AAPF-pNA (SEQ ID NO: 4) in the absence and presence of inhibitor.\n(§1) Hydrolysis of paranitroanilide-derivatized substrates—Paranitroanilide (pNA)-derivatized tripeptide substrates were chemically synthesized at >90% purity (21st Century Biochemicals, Marlborough, Mass.). The substrates obtained were Z-YPQ-pNA, Z-QQP-pNA, Z-LPY-pNA, Z-PFP-pNA, Z-PPF-pNA, where Z=benzyloxycarbonyl, Y=tyrosine, P=proline, Q=glutamine, L=leucine, and F=phenylalanine Suc-AAPF-pNA (SEQ ID NO: 4) was obtained from Sigma, where Suc=N-succinyl and A=alanine. The peptides were dissolved in 75-100% DMSO at 10 mM, and were used at a final concentration of 200 μM in 50 mM TrisHCl pH 8.0. Purified Rothia enzyme or subtilisin A from Bacillus licheniformis (Sigma) were tested at final concentrations of 1 μg/ml. Some experiments were conducted in the presence of inhibitors 4-(2-Aminoethyl) benzenesulfonyl fluoride (AEBSF), Aprotinin, E-64, EDTA, phenylmethanesulfonyl fluoride (PMSF) and Eglin C, which were tested at final concentrations of 10 mM, 0.08 mM, 0.1 mM, 1.5 mM, 1 mM, and 0.06-1.2 μM, respectively. Enzymes were preincubated with the inhibitors for 20 min before adding Suc-AAPF-pNA (SEQ ID NO: 4). Substrate hydrolysis was monitored for 10 h at 405 nm using a Genios microtiter plate reader (Tecan, Männedorf, Switzerland) in the kinetic mode at 37° C."}, "gliadins": {"tested_on": "gliadins", "experiment": "Gliadin degradation control of Example 3 (SDS-PAGE)", "type": "biochemical", "conditions": "gliadins 500 μg/ml, enzyme 25 μg/ml, pH 8.0", "procedure": "(§2) FIGS. 15A-15F show effective ATI degradation by subtilisins from B. subtilis (nattokinase). […] ATI (500 μg/ml) incubated with Rmep from R. mucilaginosa (FIG. 15A) or nattokinase from B. subtilis (FIG. 15C) at 50, 25, or 10 μg/ml; FIGS. 15B and 15D, Gliadins (500 μg/ml) incubated with Rmep (FIG. 15B) or nattokinase (FIG. 15D) at 25 μg/ml. FIGS. 15E and 15F, ATIs incubated with control heat inactivated enzymes, Rmep (FIG. 15E) or nattokinase (FIG. 15F).\n(§3) ATIs were isolated from wheat cultivars as described^3. They were incubated at a final concentration of 500 μg/ml with 10, 25 or 50 μg/ml Rmep (from R. mucilaginosa), or nattokinase (from B. subtilis). The controls incubations were carried out with heat-inactivated Rmep and nattokinase. Experiments were conducted in 50 mM Tris-HCl, pH 8.0. After 0, 15 min, 30 min, 1 h, and 4 h incubation, 20 μl aliquots were removed, mixed with SDS-sample buffer, heated at 85° C. for 5 min and analyzed by 4-12% SDS PAGE. Proteins were visualized with Coomassie Blue staining."}, "mixed gliadins": {"tested_on": "mixed gliadins", "experiment": "Degradation of mixed gliadins (SDS-PAGE)", "type": "biochemical, wheat", "conditions": "gliadins 250 μg/ml; NattoK 57 μg/ml 0-120 min and dilution series 3.5-0.06 μg/ml 30 min", "procedure": "FIG. 5A is a representative SDS-PAGE gel of non-digested gliadins (control) and Rmep-treated gliadins. Gliadins (250 μg/ml) in 50 mM Tris/HCl pH 8.0 were incubated with Rmep at 57 μg/ml. After 0, 15 min, 30 min and 2 h incubation 100 μl aliquots were removed, boiled and analyzed by SDS-PAGE and stained with COOMASSIE Brilliant Blue. The bold arrow (left) points to the position of the major band in the gliadin preparation; the thin arrow (right) to the 125 kDa band in the Rmep preparation, and the dotted arrows (right) to the gliadin degradation fragments.\nFIG. 6A is a representative SDS-PAGE gel of non-digested gliadins (control) and subtilisin A-treated gliadins. Gliadins (250 μg/ml) in 50 mM Tris/HCl pH 8.0 were incubated with subtilisin A at 57 μg/ml. Experiments were conducted as described in the legend of FIG. 5 with subtilisin A instead of Rmep.\nFIG. 8A is a representative SDS-PAGE gel of non-digested gliadins (control) and NattoK-treated gliadins. Mixed gliadins (G, 250 μg/ml) were incubated with NattoK (57 μg/ml) for 0, 15, 30 and 120 min. Left four lanes: controls without enzyme or gliadins, respectively, each at t=0 and 120 min. Arrow points to the major components in the gliadin mixture represented by α and γ-gliadins containing most of the immunogenic epitopes.\n(§4) Degradation of mixed gliadins and the 33-mer peptide—Mixed gliadins were obtained from Sigma. A synthetic highly immunogenic α-gliadin derived 33-mer peptide (26) was synthesized at a purity of >90% (21st Century Biochemicals). Mixed gliadins or the 33-mer peptide (each at final concentration 250 μg/ml) were incubated with Rmep or subtilisin A (each at 57 μg/ml) in 50 mM TrisHCl, pH 8.0. After t=0, 15 min, 30 min, and 2 h, 100 μl sample aliquots were removed and boiled. Gliadin degradation was assessed by 4-12% SDS-PAGE followed by Coomassie staining, and 33-mer degradation was determined by RP-HPLC."}, "[2]": {"tested_on": "α-gliadin derived 33-mer peptide", "experiment": "Degradation of the 33-mer peptide (RP-HPLC)", "type": "biochemical", "conditions": "33-mer 250 μg/ml, NattoK 57 μg/ml, 0-120 min; large fragment remained", "procedure": "FIG. 8D is a representative chromatogram of the RP-HPLC analysis of the degradation of the gliadin-derived 33-mer (250 μg/ml) incubated for 0, 15, 30 and 120 min with NattoK 57 μg/ml).\nas §4\nReversed-phase high performance liquid chromatography (RP-HPLC)—Separation of the 33-mer peptide and its fragments was achieved by RP-HPLC, using buffer A (0.1% trifluoroacetic acid) and buffer B (0.1% trifluoroacetic acid in 80% acetonitrile) at a gradient of 0-55% buffer B over 75 min time interval. The equipment used was an HPLC Model 715 (Gilson, Middleton, Wis.) and a C-18 column (TSK-GEL […], ODS-120T, TOSOHaas, Montgomeryville, Pa.) (22, 25)."}, "[3]": {"tested_on": "R5 epitopes (QQPFP and related pentapeptides) in mixed gliadins", "experiment": "R5 ELISA, gluten epitope elimination in gliadin digests", "type": "biochemical", "conditions": "gliadins 250 μg/ml, NattoK 57 μg/ml, 0-120 min", "procedure": "FIG. 8E and FIG. 8F show the assessment of the survival of epitopes in the gliadin-NattoK degradation mixture employing the R5 ELISA (FIG. 8E) or G12 ELISA (FIG. 8F) assays. Epitope abolishment in Mixed gliadins (250 μg/ml) were incubated with NattoK (57 μg/ml) for 0, 15, 30 and 120 min and then assayed by the R5 ELISA or G12 ELISA.\nR5 and G12 ELISA assays—Gluten epitope elimination in the gliadin-Rmep and gliadin-subtilisin A digests was assessed using two sandwich ELISA assays employing the R5 monoclonal antibody (RIDASCREEN Gliadin, R-Biopharm, Darmstadt, Germany) or the G12 monoclonal antibody (AgraQuant® ELISA Gluten G12, Romer labs, Union, Mo.). To prevent high background values, the R5 plate wells were blocked with 1% skim milk in PBS prior to incubation with the samples. The assays were performed according to the manufacturers' instructions and as described (21, 24).\nTo further investigate this, the time courses of degradation of mixed gliadins and the highly immunogenic 33-mer α-gliadin peptide were determined. Furthermore, epitope elimination was monitored by two ELISA assays employing the R5 antibody recognizing QQPFP (SEQ ID NO: 40) and related pentapeptides (27, 28) and the G12 antibody recognizing QPQLPY (SEQ ID NO: 22) contained in the 33-mer peptide (29, 30). Data obtained with Rmep are shown in FIG. 5, and with subtilisin A in FIG. 6."}, "Suc-AAPF-pNA": {"tested_on": "Suc-AAPF-pNA", "experiment": "Hydrolysis of paranitroanilide-derivatized substrate Suc-AAPF-pNA", "type": "biochemical", "conditions": "substrate 200 μM; enzyme 1 μg/ml (NattoK: dilution series); 50 mM TrisHCl pH 8.0, 37° C.", "procedure": "FIG. 4A and FIG. 4B are representative graphs of the hydrolysis of the substrates: Suc-AAPF-pNA (SEQ ID NO: 4), Z-YPQ-pNA, and Z-LPY-pNA, each at 200 μM, by Rmep and subtilisin A, respectively, each at 1 μg/ml.\nFIG. 8C show a representative graph of the hydrolysis of the substrate, Suc-AAPF-pNA (SEQ ID NO: 4), with a dilution series of NattoK. Suc-AAPF-pNA (SEQ ID NO: 4) was incubated […]. Hydrolysis was measured at 405 nm.\nas §1"}, "wheat ATI proteins": {"tested_on": "wheat ATI proteins", "experiment": "Degradation of amylase-trypsin inhibitors (SDS-PAGE)", "type": "biochemical", "conditions": "ATIs 500 μg/ml", "procedure": "as §2, §3"}}, "data": [{"molecule": "NCCc1ccc(S(=O)(=O)F)cc1", "note": "[AEBSF, 4-(2-Aminoethyl) benzenesulfonyl fluoride]", "values": [{"measurement": "inhibition of Rmep activity", "setting": "[1]", "result": "inhibited effectively"}]}, {"molecule": "O=C(O)CN(CCN(CC(=O)O)CC(=O)O)CC(=O)O", "note": "[EDTA, ethylenediaminetetraacetic acid]", "values": [{"measurement": "inhibition of Rmep activity", "setting": "[1]", "result": "not"}]}, {"molecule": "CC(C)C[C@H](NC(=O)[C@H]1O[C@@H]1C(=O)O)C(=O)NCCCCN=C(N)N", "note": "[E64]", "values": [{"measurement": "inhibition of Rmep activity", "setting": "[1]", "result": "not"}]}, {"molecule": "O=S(=O)(F)Cc1ccccc1", "note": "[PMSF, phenylmethanesulfonyl fluoride]", "values": [{"measurement": "inhibition of the Rothia subtilisin by PMSF", "setting": "[1]; 1 mM PMSF, stated as embodiment", "result": 100, "unit": "%"}, {"measurement": "inhibition of Rmep activity", "setting": "[1]", "result": "inhibited effectively"}]}, {"molecule": "aprotinin", "values": [{"measurement": "inhibition of Rmep activity", "setting": "[1]", "result": "partial inhibition"}]}, {"molecule": "B1", "values": [{"measurement": "degradation of gliadins", "setting": "gliadins", "result": "rapidly degraded"}, {"measurement": "degradation of mixed gliadins", "setting": "mixed gliadins", "result": "degraded gliadins effectively"}, {"measurement": "degradation of the 33-mer peptide", "setting": "[2]", "result": "degraded the 33-mer peptide"}, {"measurement": "abolishment of R5 epitopes", "setting": "[3]", "result": "abolished"}, {"measurement": "hydrolysis of Suc-AAPF-pNA", "setting": "Suc-AAPF-pNA", "result": "hydrolyzed"}, {"measurement": "ATIs degraded after 4 h incubation with 10 μg/ml enzyme", "setting": "wheat ATI proteins; 10 μg/ml enzyme, 4 h", "result": "Approximately 50%"}, {"measurement": "ATIs degraded after 1 h incubation with 50 μg/ml enzyme", "setting": "wheat ATI proteins; 50 μg/ml enzyme, 1 h", "result": "Approximately 50%"}, {"measurement": "degradation of wheat ATI proteins", "setting": "wheat ATI proteins; enzyme 10, 25 or 50 μg/ml, pH 8.0, up to 4 h", "result": "susceptible to proteolysis"}]}]}
